Literature values, collected in paper PMC11866742.
pKd: −log10 of the molar value.

Molecular target: SIRPα (Homo sapiens) (UniProt P78324)
Sequence of UniProt P78324 (P78324 31-373): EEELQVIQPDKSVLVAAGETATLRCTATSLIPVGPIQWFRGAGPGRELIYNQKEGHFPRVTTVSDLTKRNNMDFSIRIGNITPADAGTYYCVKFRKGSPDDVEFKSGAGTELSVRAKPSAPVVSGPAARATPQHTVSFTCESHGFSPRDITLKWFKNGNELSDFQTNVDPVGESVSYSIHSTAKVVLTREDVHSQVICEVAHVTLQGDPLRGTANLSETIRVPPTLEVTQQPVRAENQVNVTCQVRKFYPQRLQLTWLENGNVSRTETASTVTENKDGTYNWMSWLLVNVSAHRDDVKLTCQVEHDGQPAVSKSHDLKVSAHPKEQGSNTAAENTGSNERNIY

Substance: CD47 (from UniProt Q08722)
- pKd: 5.82
